Test results as given in patent publication US20190016825A1 (JIANGSU HENGRUI MEDICINE, published 2019).
Positions count from the first letter of the chain named.

B1: h001-14 (antibody, human IgG1, V domains shown)
VH: QVQLVQSGAEVKKPGASVKVSCKASGYTFNDYWMHWVRQAPGQGLEWMGYINPSSGFTKYHQNFKDRVTMTRDTSISTAYMELSRLTSDDTAVYYCARQYDYDEDWYFDVWGQGTTVTVSS
VL: DIQMTQSPSSLSASVGDRVTITCKSSQSLLNSRTRKNFLAWYQQKPGKAPKLLIYWASTRESGVPDRFSGSGSGTDFTLTISSLQPEDFATYYCKQSFNLFTFGQGTKLEIK
notes: Variable regions only; also called h001_VH.1C + h001_VL.1A
B2: h001-19 (antibody, human IgG1, V domains shown)
VH: B1 VH with R72A, T74K
VL: B1 VL with T5S
notes: Variable regions only; also called h001_VH.1D + h001_VL.1B
B3: h001-8 (antibody, human IgG1, V domains shown)
VH: B1 VH with T87R
VL: B1 VL with Q3V, T5S, A49S
notes: Variable regions only; also called h001_VH.1A + h001_VL.1C
B4: h001-13 (antibody, human IgG1, V domains shown)
VH: B1 VH
VL: B1 VL with D66S
notes: Variable regions only; also called h001_VH.1C + h001_VL.1
B5: h001-11 (antibody, human IgG1, V domains shown)
VH: B1 VH with N30T
VL: B1 VL with T5S
notes: Variable regions only; also called h001_VH.1B + h001_VL.1B
B6: h001-1 (antibody, human IgG1, V domains shown)
VH: B1 VH with N30T, T87R
VL: B1 VL with D66S
notes: Variable regions only; also called h001_VH.1 + h001_VL.1
B7: h001-21 (antibody, human IgG1, V domains shown)
VH: B1 VH with R38K, M48I, R67K, V68A, M70L, R72A, T74K
VL: B1 VL with D66S
notes: Variable regions only; also called h001_VH.1E + h001_VL.1
B8: h001-22 (antibody, human IgG1, V domains shown)
VH: B1 VH with R38K, M48I, R67K, V68A, M70L, R72A, T74K
VL: B1 VL
notes: Variable regions only; also called h001_VH.1E + h001_VL.1A
B9: h001-20 (antibody, human IgG1, V domains shown)
VH: B1 VH with R72A, T74K
VL: B1 VL with Q3V, T5S, A49S
notes: Variable regions only; also called h001_VH.1D + h001_VL.1C
B10: h001-15 (antibody, human IgG1, V domains shown)
VH: B1 VH
VL: B1 VL with T5S
notes: Variable regions only; also called h001_VH.1C + h001_VL.1B
B11: h001-6 (antibody, human IgG1, V domains shown)
VH: B1 VH with T87R
VL: B1 VL
notes: Variable regions only; also called h001_VH.1A + h001_VL.1A
B12: h001-12 (antibody, human IgG1, V domains shown)
VH: B1 VH with N30T
VL: B1 VL with Q3V, T5S, A49S
notes: Variable regions only; also called h001_VH.1B + h001_VL.1C
B13: h001-17 (antibody, human IgG1, V domains shown)
VH: B1 VH with R72A, T74K
VL: B1 VL with D66S
notes: Variable regions only; also called h001_VH.1D + h001_VL.1
B14: h001-9 (antibody, human IgG1, V domains shown)
VH: B1 VH with N30T
VL: B1 VL with D66S
notes: Variable regions only; also called h001_VH.1B + h001_VL.1
B15: h001-2 (antibody, human IgG1, V domains shown)
VH: B1 VH with N30T, T87R
VL: B1 VL
notes: Variable regions only; also called h001_VH.1 + h001_VL.1A
B16: h001-16 (antibody, human IgG1, V domains shown)
VH: B1 VH
VL: B1 VL with Q3V, T5S, A49S
notes: Variable regions only; also called h001_VH.1C + h001_VL.1C
B17: h001-24 (antibody, human IgG1, V domains shown)
VH: B1 VH with R38K, M48I, R67K, V68A, M70L, R72A, T74K
VL: B1 VL with Q3V, T5S, A49S
notes: Variable regions only; also called h001_VH.1E + h001_VL.1C
B18: h001-3 (antibody, human IgG1, V domains shown)
VH: B1 VH with N30T, T87R
VL: B1 VL with T5S
notes: Variable regions only; also called h001_VH.1 + h001_VL.1B
B19: h001-7 (antibody, human IgG1, V domains shown)
VH: B1 VH with T87R
VL: B1 VL with T5S
notes: Variable regions only; also called h001_VH.1A + h001_VL.1B
B20: h001-5 (antibody, human IgG1, V domains shown)
VH: B1 VH with T87R
VL: B1 VL with D66S
notes: Variable regions only; also called h001_VH.1A + h001_VL.1
B21: h001-18 (antibody, human IgG1, V domains shown)
VH: B1 VH with R72A, T74K
VL: B1 VL
notes: Variable regions only; also called h001_VH.1D + h001_VL.1A
B22: h001-23 (antibody, human IgG1, V domains shown)
VH: B1 VH with R38K, M48I, R67K, V68A, M70L, R72A, T74K
VL: B1 VL with T5S
notes: Variable regions only; also called h001_VH.1E + h001_VL.1B

Molecular target: T1, PCSK9-D374Y-BP15-His6 (human, UniProt Q8NBP7 31-692, biotin on the BP15 biotin receiving peptide)
T1 construct: also called PCSK9-Y; mutant PCSK9
Test: ELISA, bio-PCSK9-Y captured on streptavidin plate
Protocol: The binding ability of anti-PCSK9 antibodies of the present invention to PCSK9-Y was detected by measuring the amount of antibodies binding to PCSK9-Y (mutant PCSK9, SEQ ID NO: 6) fixed on the ELISA plate.
Streptavidin (sigma, CAT#54762) was diluted to 2 μg/ml with PBS and coated into 96-well ELISA plate at 4° C. overnight. The plate was washed and then blocked with Tris buffer (including 0.9 mM CaCl₂, 0.05% Tween 20 and 5% skim milk) at 37° C. for 2 hours. Then the plate was washed again and 100 μl/well of the biotin-labeled PCSK9-Y, produced in-house, (bio-PCSK9-Y, diluted with Tris buffer containing 0.9 mM CaCl₂, 0.05% Tween 20 and 1% skim milk) was added and incubated at 37° C. for 1 hour. After the wash step, different concentrations of diluted PCSK9 antibody samples were added to the plate and incubated at 37° C. for 1 hour. Then the plate was washed again and HRP-goat-anti-human (H+L) antibody (Jackson ImmunoResearch, CAT#109-035-088) was added and incubated at 37° C. for 1 hour. Then the plate was washed again and tetramethylbenzidine solution was added for development. Finally, the stop solution was added and the OD450 value was measured on the Microplate reader, and then EC50 was calculated.
The results of ELISA test for the binding ability of chimeric antibodies and back-mutated antibodies of the present invention to mutant PCSK9 are shown in table 6.

| Binder | EC50 [µg/mL] |
| --- | --- |
| B1 | 0.0112 |
| B2 | 0.0204 |
| B3 | 0.0165 |
| B4 | 0.0096 |
| B5 | 0.017 |
| B6 | 0.0132 |
| B7 | 0.0119 |
| B8 | 0.0111 |
| B9 | 0.017 |
| B10 | 0.0178 |
| B11 | 0.0144 |
| B12 | 0.0124 |
| B13 | 0.0161 |
| B14 | 0.0194 |
| B15 | 0.0157 |
| B16 | 0.0111 |
| B17 | 0.017 |
| B18 | 0.0152 |
| B19 | 0.0137 |
| B20 | 0.0152 |
| B21 | 0.0191 |
| B22 | 0.0125 |

Molecular target: T1, PCSK9-D374Y-BP15-His6
Test: blocking ELISA, LDLR-FC (SEQ ID NO: 8) coated, bio-PCSK9-Y plus antibody
Protocol: The blocking abilities of anti-PCSK9 antibodies to the binding of LDLR-FC (SEQ ID NO: 8) to PCSK9-Y (mutant PCSK9, SEQ ID NO: 6) were detected by measuring the amount of PCSK9-Y binding to LDLR in the presence of the antibodies.
LDLR-FC was diluted to 2 μg/ml with phosphate buffer and coated in the 96-well ELISA plate (Costar, CAT#3590), then incubated at 4° C. overnight. The plate was washed and then blocked with Tris buffer (including 0.9 mM CaCl₂, 0.05% Tween 20 and 5% skim milk) at 37° C. for 2 hours. Then the plate was washed again and 100 μl/well of the mixture of biotin-labeled PCSK9-Y (bio-PCSK9-Y, diluted to final concentration of […] with Tris buffer containing 0.9 mM CaCl₂, 0.05% Tween 20 and 1% skim milk) and antibody samples (diluted with Tris buffer containing 0.9 mM CaCl₂, 0.05% Tween 20 and 1% skim milk) were added and incubated at 37° C. for 1 hour. Then the plate was washed again and horseradish peroxidase-streptavidin (sigma, CAT#S2438) was added and incubated at 37° C. for 1 hour. Then the plate was washed and tetramethylbenzidine solution was added for development. Finally, the stop solution was added and the OD450 value was measured on the Microplate reader, then IC50 was calculated.
The results of blocking test for the blocking effects of the chimeric antibodies and back-mutated antibodies of the present invention on the binding of LDLR-FC/PCSK9-Y are shown in table 7.

| Binder | IC50 [µg/mL] |
| --- | --- |
| B3 | 0.414 |
| B6 | 0.566 |
| B11 | 0.437 |
| B14 | 0.52 |
| B15 | 0.455 |
| B18 | 0.475 |
| B19 | 0.515 |
| B20 | 0.468 |

Molecular target: T2, PCSK9-BP15-His6 (human, UniProt Q8NBP7 31-692, biotin on the BP15 biotin receiving peptide)
T2 construct: It holds a signal peptide (underlined in print); also called WT PCSK9; bio-WT-PCSK9
Test: blocking ELISA, LDLR-FC (SEQ ID NO: 8) coated, bio-WT-PCSK9 plus antibody
Protocol: The blocking abilities of PCSK9 antibodies of the present invention to the binding of LDLR-FC (produced in-house, sequence is shown in SEQ ID NO: 8) to PCSK9 (SEQ ID NO: 5) were detected by measuring the amount of PCSK9 binding to LDLR in the presence of the antibodies.
LDLR-FC was diluted to 5 μg/ml with phosphate buffer and coated in the 96-well ELISA plate, then incubated at 4° C. overnight. The plate was washed and then blocked with Tris buffer (including 0.9 mM CaCl₂, 0.05% Tween 20 and 5% skim milk) at 37° C. for 2 hours. Then the plate was washed again and 100 μl/well of the mixture of biotin-labeled PCSK9 (bio-WT-PCSK9, diluted to the final concentration of 2 μg/ml with Tris buffer containing 0.9 mM CaCl₂, 0.05% Tween 20 and 1% skim milk) and antibody samples (diluted with Tris buffer containing 0.9 mM CaCl₂, 0.05% Tween 20 and 1% skim milk) were added and incubated at 37° C. for 1 hour. Then the plate was washed again and horseradish peroxidase-streptavidin (Sigma, CAT#52438) was added and incubated at 37° C. for 1 hour. Then the plate was washed and tetramethylbenzidine solution was added for development. Finally, the stop solution was added and the OD450 was measured on the Microplate reader, then IC50 was calculated.

| Binder | IC50 [µg/mL] |
| --- | --- |
| B3 | 0.774 |
| B6 | 0.5 |
| B11 | 0.662 |
| B14 | 0.923 |
| B15 | 0.675 |
| B18 | 0.702 |
| B19 | 0.652 |
| B20 | 4.32 |

Molecular target: T2, PCSK9-BP15-His6
Test: ELISA, bio-WT-PCSK9 captured on streptavidin plate
Protocol: The binding ability of anti-PCSK9 antibodies of the present invention to PCSK9 was detected by measuring the amount of antibodies binding to wild-type PCSK9 protein (WT PCSK9, SEQ ID NO: 5) fixed on the ELISA plate.
Streptavidin (sigma, CAT#S4762) was diluted to 2 μg/ml with PBS and coated into 96-well ELISA plate, at 4° C. overnight. The plate was washed and then blocked with Tris buffer (including 0.9 mM CaCl2, 0.05% Tween 20 and 5% skim milk) at 37° C. for 2 hours. Then the plate was washed again and 100 μl/well of the biotin-labeled PCSK9, produced in-house, (bio-WT-PCSK9, diluted with Tris buffer containing 0.9 mM CaCl2, 0.05% Tween 20 and 1% skim milk), was added and incubated at 37° C. for 1 hour. After the wash step, different concentrations of diluted PCSK9 antibody samples was added to the plate and incubated at 37° C. for 1 hour. Then the plate was washed again and HRP-goat-anti-human (H+L) antibody (Jackson ImmunoResearch, CAT#109-035-088) was added and incubated at 37° C. for 1 hour. Then the plate was washed again and tetramethylbenzidine solution was added for development. Finally, the stop solution was added and the OD450 value was measured on the Microplate reader, and then EC50 was calculated.

| Binder | EC50 [µg/mL] |
| --- | --- |
| B1 | 0.0084 |
| B2 | 0.0139 |
| B3 | 0.009 |
| B4 | 0.0071 |
| B5 | 0.0129 |
| B6 | 0.0084 |
| B7 | 0.0145 |
| B8 | 0.0123 |
| B9 | 0.0126 |
| B10 | 0.011 |
| B11 | 0.01 |
| B12 | 0.0103 |
| B13 | 0.0114 |
| B14 | 0.0136 |
| B15 | 0.0123 |
| B16 | 0.0082 |
| B17 | 0.0092 |
| B18 | 0.0113 |
| B19 | 0.012 |
| B20 | 0.0141 |
| B21 | 0.0147 |
| B22 | 0.0118 |
